Laboratory results: paper PMC4349392

Biological target: YFP-tagged CaV1.3 IQ domain, prototypic (IQDY) (rat)
Test: FRET or BRET

K (a,EFF) (reciprocal D (free) units): 0.000588 | Ka: 1.8e+07 M⁻¹ | Kd: 55 nM
Substance: CFP-tagged calmodulin, wild type (CFP-CaMWT) (from UniProt P0DP29 1-149) (natural protein)
